Data as given in patent US20230061973A1 (LARIMAR THERAPEUTICS, published 2023).

Molecular target: T1, exemplary TAT frataxin fusion molecule (HIV-1, UniProt Q16595 1-210)
T1 construct: in the bridging assays biotinylated and sulfotagged forms were used; also called TAT-FXN fusion molecule; TAT FXN fusion molecule
T1 sequence: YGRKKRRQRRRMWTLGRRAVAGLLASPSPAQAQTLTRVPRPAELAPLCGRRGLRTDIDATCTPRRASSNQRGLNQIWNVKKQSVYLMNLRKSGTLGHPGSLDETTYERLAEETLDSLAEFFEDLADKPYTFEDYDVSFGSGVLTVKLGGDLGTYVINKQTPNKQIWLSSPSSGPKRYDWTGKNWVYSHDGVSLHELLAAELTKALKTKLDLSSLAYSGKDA
Experiment: PK sandwich ELISA in human plasma, antibody as capture, HRP anti-frataxin mAb detection

B1: antibody 12-3 (antibody, V domains shown)
VH: QSLEESGGDLVKPGASLTLTCTASGFSFSSGYWICWVRQAPGKGLEWIACIYTGDGDTSYASWAKGRFTISKTSSTTVTLQMTSLTVADTAIYFCARDTSGTFYYNLWGPGTLVAVSS
VL: DVVMTQTPSPVSAPVGGTVTINCQASQNIYSNLAWYQQKPGQPPKLLIYGASTLASGVSSRFKGSRSGTEFTLTISDLECADAATYYCQSYVYSSSTADTFGGGTKVVVE
notes: Rabbit monoclonal
- Mean OD at plasma conc. 0.400 ng/mL: 0.067 OD
- Mean OD at plasma conc. 0.800 ng/mL: 0.091 OD
- Mean OD at plasma conc. 1.60 ng/mL: 0.133 OD
- Mean OD at plasma conc. 3.20 ng/mL: 0.22 OD
- Mean OD at plasma conc. 6.40 ng/mL: 0.416 OD
- Mean OD at plasma conc. 12.8 ng/mL: 0.767 OD
- Mean OD at plasma conc. 25.6 ng/mL: 1.45 OD
- Mean OD at plasma conc. 51.2 ng/mL: 2.78 OD
- S/N at plasma conc. 0.400 ng/mL: 1.6
- S/N at plasma conc. 0.800 ng/mL: 2.1
- S/N at plasma conc. 1.60 ng/mL: 3.1
- S/N at plasma conc. 3.20 ng/mL: 5.1
- S/N at plasma conc. 6.40 ng/mL: 9.7
- S/N at plasma conc. 12.8 ng/mL: 17.8
- S/N at plasma conc. 25.6 ng/mL: 33.7
- S/N at plasma conc. 51.2 ng/mL: 64.6

B2: antibody 12-8 (antibody, V domains shown)
VH: B1 VH
VL: AAVLTQTPSSVSAAVGGTVTISCQSSESVYKTNYLSWFQKKPGQPPKLLIYDASTLASGVPSRFSGSGSGTQFTLTISDLECDDAATYYCAGGYSDDINAFGGGTEVEIK
notes: Rabbit monoclonal
- Mean OD at plasma conc. 0.400 ng/mL: 0.07 OD
- Mean OD at plasma conc. 0.800 ng/mL: 0.087 OD
- Mean OD at plasma conc. 1.60 ng/mL: 0.129 OD
- Mean OD at plasma conc. 3.20 ng/mL: 0.225 OD
- Mean OD at plasma conc. 6.40 ng/mL: 0.409 OD
- Mean OD at plasma conc. 12.8 ng/mL: 0.75 OD
- Mean OD at plasma conc. 25.6 ng/mL: 1.45 OD
- Mean OD at plasma conc. 51.2 ng/mL: 2.67 OD
- S/N at plasma conc. 0.400 ng/mL: 1.5
- S/N at plasma conc. 0.800 ng/mL: 1.9
- S/N at plasma conc. 1.60 ng/mL: 2.7
- S/N at plasma conc. 3.20 ng/mL: 4.8
- S/N at plasma conc. 6.40 ng/mL: 8.7
- S/N at plasma conc. 12.8 ng/mL: 16
- S/N at plasma conc. 25.6 ng/mL: 30.9
- S/N at plasma conc. 51.2 ng/mL: 56.9

B3: antibody 12-10 (antibody, V domains shown)
VH: B1 VH
VL: B2 VL
notes: Rabbit monoclonal
- Mean OD at plasma conc. 0.400 ng/mL: 0.067 OD
- Mean OD at plasma conc. 0.800 ng/mL: 0.089 OD
- Mean OD at plasma conc. 1.60 ng/mL: 0.141 OD
- Mean OD at plasma conc. 3.20 ng/mL: 0.242 OD
- Mean OD at plasma conc. 6.40 ng/mL: 0.447 OD
- Mean OD at plasma conc. 12.8 ng/mL: 0.818 OD
- Mean OD at plasma conc. 25.6 ng/mL: 1.51 OD
- Mean OD at plasma conc. 51.2 ng/mL: 2.79 OD
- S/N at plasma conc. 0.400 ng/mL: 1.4
- S/N at plasma conc. 0.800 ng/mL: 1.8
- S/N at plasma conc. 1.60 ng/mL: 2.9
- S/N at plasma conc. 3.20 ng/mL: 4.9
- S/N at plasma conc. 6.40 ng/mL: 9.1
- S/N at plasma conc. 12.8 ng/mL: 16.7
- S/N at plasma conc. 25.6 ng/mL: 30.8
- S/N at plasma conc. 51.2 ng/mL: 57

B4: antibody 10-4 (antibody, V domains shown)
VH: B1 VH
VL: B1 VL
notes: Rabbit monoclonal
- Mean OD at plasma conc. 0.400 ng/mL: 0.076 OD
- Mean OD at plasma conc. 0.800 ng/mL: 0.092 OD
- Mean OD at plasma conc. 1.60 ng/mL: 0.14 OD
- Mean OD at plasma conc. 3.20 ng/mL: 0.229 OD
- Mean OD at plasma conc. 6.40 ng/mL: 0.411 OD
- Mean OD at plasma conc. 12.8 ng/mL: 0.757 OD
- Mean OD at plasma conc. 25.6 ng/mL: 1.41 OD
- Mean OD at plasma conc. 51.2 ng/mL: 2.7 OD
- S/N at plasma conc. 0.400 ng/mL: 1.4
- S/N at plasma conc. 0.800 ng/mL: 1.6
- S/N at plasma conc. 1.60 ng/mL: 2.5
- S/N at plasma conc. 3.20 ng/mL: 4.1
- S/N at plasma conc. 6.40 ng/mL: 7.3
- S/N at plasma conc. 12.8 ng/mL: 13.5
- S/N at plasma conc. 25.6 ng/mL: 25.2
- S/N at plasma conc. 51.2 ng/mL: 48.3

B5: antibody 10-5 (antibody, V domains shown)
VH: B1 VH
VL: B1 VL
notes: Rabbit monoclonal
- Mean OD at plasma conc. 0.400 ng/mL: 0.071 OD
- Mean OD at plasma conc. 0.800 ng/mL: 0.09 OD
- Mean OD at plasma conc. 1.60 ng/mL: 0.135 OD
- Mean OD at plasma conc. 3.20 ng/mL: 0.23 OD
- Mean OD at plasma conc. 6.40 ng/mL: 0.447 OD
- Mean OD at plasma conc. 12.8 ng/mL: 0.819 OD
- Mean OD at plasma conc. 25.6 ng/mL: 1.53 OD
- Mean OD at plasma conc. 51.2 ng/mL: 2.86 OD
- S/N at plasma conc. 0.400 ng/mL: 1.5
- S/N at plasma conc. 0.800 ng/mL: 1.9
- S/N at plasma conc. 1.60 ng/mL: 2.9
- S/N at plasma conc. 3.20 ng/mL: 4.9
- S/N at plasma conc. 6.40 ng/mL: 9.5
- S/N at plasma conc. 12.8 ng/mL: 17.4
- S/N at plasma conc. 25.6 ng/mL: 32.5
- S/N at plasma conc. 51.2 ng/mL: 60.8
